Experimental data as given in article PMC10581246, “The presence of benzene ring activating CoA ligases for aromatics degradation in the ANaerobic MEthanotrophic (ANME) archaea” (Microbiology Spectrum, 2023).

Experiments:
Assay in all cases: purified protein
Details in all cases: apparent, 1 mM ATP, 0.5 mM CoA, 10 mM MgCl2, 50 mM Tris-HCl pH 8.0, room temperature
[1] = test system: O=C(O)c1ccccc1
[2] = test system: O=C(O)c1ccc(O)cc1
[3] = test system: O=C(O)c1cccc(O)c1
[4] = test system: O=C(O)Cc1ccc(O)c(O)c1
[5] = test system: O=C(O)Cc1cccc(O)c1
[6] = test system: O=C(O)Cc1ccccc1
[7] = test system: O=C(O)Cc1ccc(O)cc1

| Substance | Km [1] [µM] | kcat [1] [s⁻¹] | Km [2] [µM] | kcat [2] [s⁻¹] | Km [3] [µM] | kcat [3] [s⁻¹] | Km [4] [µM] | kcat [4] [s⁻¹] | Km [5] [µM] | kcat [5] [s⁻¹] | Km [6] [µM] | kcat [6] [s⁻¹] | Km [7] [µM] | kcat [7] [s⁻¹] |
| --- | --- | --- | --- | --- | --- | --- | --- | --- | --- | --- | --- | --- | --- | --- |
| BadAANME (ANME-2 cluster archaeon) | 12.98 ± 1.563 | 0.1127 ± 0.002522 | 55.08 ± 6.910 | 0.1086 ± 0.02963 | 76.97 ± 14.69 | 0.2197 ± 0.01127 | – | – | – | – | – | – | – | – |
| PaaKANME (PaaK1ANME) (ANME-2 cluster archaeon) | – | – | – | – | – | – | 42.80 ± 15.03 | 0.0976 ± 0.00722 | 68.87 ± 9.425 | 0.254 ± 0.00895 | 180.6 ± 32.18 | 0.153 ± 0.00755 | 49.15 ± 12.54 | 0.148 ± 0.00881 |
